The values below come from article PMC2834951 (Nature structural & molecular biology, 2009).

One series deals with T1, human Ubc13 (human, UniProt P61088 1-152).
T1 sequence (looked up): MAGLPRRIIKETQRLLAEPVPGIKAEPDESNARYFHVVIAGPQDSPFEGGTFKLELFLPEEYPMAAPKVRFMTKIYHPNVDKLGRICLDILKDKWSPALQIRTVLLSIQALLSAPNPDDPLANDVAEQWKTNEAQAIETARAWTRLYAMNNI
Briefly: SEC. Background: SEC sorts molecules by how far they enter the pores of the column.

The series “SAXS” concerns the molecule itself. Briefly: SAXS.

B1: human TRAF6 RZ12 (residues 50-187) (domain or fragment, UniProt Q9Y4K3 50-187, looked up)
chain: MEEIQGYDVEFDPPLESKYECPICLMALREAVQTPCGHRFCKACIIKSIRDAGHKCPVDNEILLENQLFPDNFAKREILSLMVKCPNEGCLHKMELRHLEDHQAHCEFALMDCPQCQRPFQKFHINIHILKDCPRRQV
Take B1: in the series with human Ubc13, the binding result is recorded as “binds”.

B2: human TRAF6 RZ1 (residues 50-159) (domain or fragment, UniProt Q9Y4K3 50-159, looked up)
chain: MEEIQGYDVEFDPPLESKYECPICLMALREAVQTPCGHRFCKACIIKSIRDAGHKCPVDNEILLENQLFPDNFAKREILSLMVKCPNEGCLHKMELRHLEDHQAHCEFAL
On to B2, for which the binding result in the series with human Ubc13 is “binds”.

B3: human TRAF6 RZ123 (residues 50-211), wild type (domain or fragment, UniProt Q9Y4K3 50-211, looked up)
chain: MEEIQGYDVEFDPPLESKYECPICLMALREAVQTPCGHRFCKACIIKSIRDAGHKCPVDNEILLENQLFPDNFAKREILSLMVKCPNEGCLHKMELRHLEDHQAHCEFALMDCPQCQRPFQKFHINIHILKDCPRRQVSCDNCAASMAFEDKEIHDQNCPLA
Turning to B3, the “stoichiometry N” value in “SAXS” worked out at 2.

For orientation: stoichiometry N means a count of units in the complex or per binding partner.
